We go through two substances from publication PMC6504561.

One assay concerns the target DYNLT1 (Mus musculus) (UniProt P51807). The assay can be described thus: NMR. The settings on record: cited from earlier work.
Assay [1] has as its target FITC-labelled ARHGEF2 peptide 142-157 phosphorylated on Ser151 (not stated (human or mouse cDNA cloned)). The assay can be described thus: MST.
Assay [2] has as its target FITC-labelled ARHGEF2 peptide 876-891 phosphorylated on Ser885 (not stated (human or mouse cDNA cloned)). Description: MST.

Sequence of ARHGEF2 peptide 133-161 (Q60875 133-161): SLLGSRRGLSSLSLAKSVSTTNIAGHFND
Sequence of DYNLT1 (Mus musculus) (P51807 whole entry): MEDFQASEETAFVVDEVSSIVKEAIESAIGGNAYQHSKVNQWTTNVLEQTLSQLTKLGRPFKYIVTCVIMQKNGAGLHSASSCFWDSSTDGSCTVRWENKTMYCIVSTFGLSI

In general, Kd refers to the equilibrium constant for the complex coming apart. For the substance “ARHGEF2 peptide 133-161 (from UniProt Q60875)”, the dissociation constant Kd with DYNLT1 (Mus musculus) is 80 µM.

In the case of “GST-14-3-3 (from UniProt P63101 1-245) (natural protein)”, the dissociation constant Kd worked out at 11.6 µM in assay [1] and 2.3 µM in assay [2].
